# Measured values published in the supplement of paper PMC7877785.
# ± gives the uncertainty stated by the source.
# Assay: self-splicing fitness, log relative to wild type (ln ratio); higher = more splicing; Tetrahymena group I intron in knt gene, E. coli kanamycin selection, DiMSum; sequences stand for … in CUCUCU…GGAGGGAAAAGUUAUCAGGCAUGCACCUGGUAGCUAGUCUUUAAACCAAUAGAUUGCAUCGGUUUAAAAGGCAAGACCGUCAAAUUGCGGGAAAGGGGUCAACAGCCGUUCAGUACCAAGUCUCAGGGGAAACUUUGAGAUGGCCUUGCAAAGGGUAUGGUAAUAAGCUGACGGACAUGGUCCUAACCACGCAGCCAAGUCCUAAGUCAACAGAUCUUCUGUUGAUAUGGAUGCAGUUCACAGACUAAAUGUCGGUCGGGGAAGAUGUAUUCUUCUCAUAAGAUAUAGUCGGACCUCUCCUUAAUGGGAGCUAGCGGAUGAAGUGAUGCAACACUGGAGCCGCUGGGAACUAAUUUGUAUGCGAAAGUAUAUUGAUUAGUUUUGGAGUACUCGUGGUCG
# Outline: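 Pooled colonies went to amplicon sequencing on an Illumina HiSeq 2500 after six replicate transformations. The plates were LB agar with 100 μg/mL carbenicillin, 50 μM IPTG and 0.2% rhamnose, with or without 25 μg/mL kanamycin, incubated overnight at 37°C or 30°C. The E. coli BL21(DE3) library had all eight P1ex-region intron nucleotides randomised, the intron placed in the knt kanamycin-resistance gene on pET-22b(+). DiMSum fitness is the error-weighted combination of replicate fold changes, kanamycin against none, normalised to wild type.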
Sequence,self-splicing fitness (ln) (30 °C),self-splicing fitness (ln) (37 °C)
AUGCAGCAAUAUUACGGGCG,0.108 ± 0.089,0.464 ± 0.11
AUGCAGCAAUAUUACGGGGA,-2.64 ± 0.16,-2.26 ± 0.18
AUGCAGCAAUAUUACGGUGU,-3.52 ± 0.16,-1.63 ± 0.14
AUGCAGCAAUAUUACGUAUA,-2.57 ± 0.27,-1.6 ± 0.16
AUGCAGCAAUAUUACGUCUU,0.0107 ± 0.076,0.303 ± 0.082
AUGCAGCAAUAUUACGUGCA,-2.07 ± 0.1,-0.922 ± 0.1
AUGCAGCAAUAUUACGUGGA,-3.1 ± 0.29,-1.73 ± 0.18
AUGCAGCAAUAUUACGUGUC,-3.68 ± 0.18,-3.18 ± 0.2
AUGCAGCAAUAUUACGUGUU,-4.05 ± 0.16,-2.66 ± 0.17
AUGCAGCAAUAUUACGUUGA,-2.97 ± 0.14,-2.41 ± 0.12
AUGGAGCAAUAUUACGAAGU,,-1.77 ± 0.36
AUGGAGCAAUAUUACGACAA,-1.86 ± 0.22,-2.46 ± 0.22
AUGGAGCAAUAUUACGACGU,-0.474 ± 0.09,-0.306 ± 0.099
AUGGAGCAAUAUUACGACUA,-1.08 ± 0.14,-1.33 ± 0.16
AUGGAGCAAUAUUACGACUG,-2.28 ± 0.3,
AUGGAGCAAUAUUACGAGAA,,-1.43 ± 0.34
AUGGAGCAAUAUUACGAGAG,,-2.04 ± 0.23
AUGGAGCAAUAUUACGAGUC,-2.08 ± 0.41,
AUGGAGCAAUAUUACGAUAU,-1.77 ± 0.12,-1.17 ± 0.15
AUGGAGCAAUAUUACGAUGG,-2.22 ± 0.29,-2.47 ± 0.44
AUGGAGCAAUAUUACGAUUC,-2.21 ± 0.3,

Sequence,self-splicing fitness (ln) (30 °C),self-splicing fitness (ln) (37 °C)
AUGGAGCAAUAUUACGCGAA,-1.66 ± 0.31,-2.36 ± 0.29
AUGGAGCAAUAUUACGCGAC,-1.94 ± 0.28,-2.79 ± 0.43
AUGGAGCAAUAUUACGCGCC,,-1.2 ± 0.34
AUGGAGCAAUAUUACGCGUC,-4.02 ± 0.18,-2.79 ± 0.15
AUGGAGCAAUAUUACGCUGA,-3.48 ± 0.24,-3.11 ± 0.35
AUGGAGCAAUAUUACGCUUU,,-1.37 ± 0.46
AUGGAGCAAUAUUACGGAGU,,-2.34 ± 0.27
AUGGAGCAAUAUUACGGCAA,-0.0716 ± 0.34,-3.02 ± 0.47
AUGGAGCAAUAUUACGGCGA,,-1.68 ± 0.29
AUGGAGCAAUAUUACGGUCG,-2.63 ± 0.18,-0.839 ± 0.12
AUGGAGCAAUAUUACGUCAC,-3.23 ± 0.37,
AUGGAGCAAUAUUACGUCGA,-3.25 ± 0.3,-3.1 ± 0.43
AUGGAGCAAUAUUACGUCGU,-2.38 ± 0.15,-1.45 ± 0.18
AUGGAGCAAUAUUACGUGCA,-2.82 ± 0.21,-1.65 ± 0.16
AUGUAGCAAUAUUACGAAGU,-3.07 ± 0.23,-0.943 ± 0.18
AUGUAGCAAUAUUACGACAA,-0.201 ± 0.091,0.171 ± 0.11
AUGUAGCAAUAUUACGAUCA,-0.747 ± 0.22,-0.492 ± 0.18
AUGUAGCAAUAUUACGCAAG,-1.8 ± 0.14,-0.627 ± 0.14
AUGUAGCAAUAUUACGCCAU,-2.41 ± 0.19,-2.18 ± 0.24
AUGUAGCAAUAUUACGCGAC,-1.38 ± 0.17,-1.76 ± 0.36
AUGUAGCAAUAUUACGCGCC,-0.455 ± 0.077,-0.312 ± 0.096
